A value given as a limit tells only on which side of the number the result lay.

The text below walks through data of the supplement of paper PMC12764529.

The nature of this data set: folding stability dG unfold (combined trypsin and chymotrypsin); higher = more stable. The method, then: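 Folding stability of de novo designed mini-proteins (<80 aa, no Cys; designed by TrROS, TrMRF, ProteinMPNN and the joint model) was measured by cDNA display proteolysis with trypsin and chymotrypsin. Each protease was used at 11 concentrations in a threefold dilution series plus a no-protease condition. K50 was inferred by Bayesian fitting of sequencing counts, and dG unfold was derived against a sequence-predicted unfolded-state K50 (Tsuboyama et al. method). Sequences shown include variable-length N-terminal GS-type padding (SAGGSAGG...) inside a display construct carrying a PA tag. Rows were kept only if the AF2 dimer inter-PAE was >15, to exclude likely homo-oligomers.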
Regarding “SAGGPKIEVDVKHQRTPDGMYRMRVTAVVPGNGRKIKITMPMPPDDPSPMPKMAKSIAKELANDPGLKSAGG [r13_968_TrROS]”, the “folding stability dG unfold” value was less than -1 kcal/mol.
Take “SAGGPKIHIDRGPDYIRVKINGPDGKPIAPSTIPYEDPDNGEEEEVKIPIEELAQESGFPIEIEPYDSAGGS [r16_778_TrROS]”: the “folding stability dG unfold” value is less than -1 kcal/mol.
Turning to “SAGGPMPPGQPVNIHIEIENPNGNERTIPVPGPVGDPDWFKEIAEKLKEEGWKIKKIHPGNGVIEIKSAGGS [r8_497_TrROS]”, the “folding stability dG unfold” value was less than -1 kcal/mol.
For “SAGGPMVTWRIKFPGKKIEVMWNPDQMNVNIYDPDKPKEVPIPMPPGEPPTADDILDELKKDGFKIEPSAGG [r13_687_TrROS]”, the “folding stability dG unfold” value is less than -1 kcal/mol.
For the sequence “SAGGPMWQVRLRDPDGKKRTINIQQTNGNMYVRIQDKDGEPVKEHPVDSAEEALDKLEDHGYKVEVYPSAGG [r13_315_TrROS]”, the “folding stability dG unfold” value is less than -1 kcal/mol.
As for “SAGGPPIMLRIKHPGPDQREKIKEIAQDYPIEPVNPTPGEHEFRFNGPEQVNRLQDIAEKNGWKIEISAGGS [r16_88_TrROS]”, the “folding stability dG unfold” value is less than -1 kcal/mol.
Regarding “SAGGPPKWKEVEFRMPPEDLKPDDIVDELQDDGIEIYNGDKPIDPGKSVDDLMQDNPNMPFTIKVWDSAGGS [r8_38_TrROS]”, the “folding stability dG unfold” value is less than -1 kcal/mol.
On to “SAGGPSMSLSTRTVTLPVDPDTTEEEIKEALNREVKLPSPSTAIETPVEVEISPGPPVATVTLQVKILSSAG [r5_939_JUSTAS]”, for which the “folding stability dG unfold” value was less than -1 kcal/mol.
On to “SAGGQKITIDNVTPGMIRIRVPNGNEFEFPEIQKELQEHGNNQPPTADQIAEWLRKRNFPIKDIEISDSAGG [r13_610_TrROS]”, for which the “folding stability dG unfold” value is less than -1 kcal/mol.
Regarding “SAGGRPYKVKIKNPGSGKPYEMPIVDVHESDDNFYIMIQNPNGKNREAPLNNIDKAEVDEEGGTITLPSAGG [r13_211_TrROS]”, the “folding stability dG unfold” value was less than -1 kcal/mol.
The figure for “SAGGSADMPMLPIEEIIDQLKEAKEANPNKKRTIEIPYPDGMPMQIEIDNDGKTKIEHPDGQWITISAGGSA [r15_73_TrROS]” is less than -1 kcal/mol; for “SAGGSAGGIKPGQRVRVKLEQWSPNGEPQKHTFPIKNIPPGFKPGQELTFPGPGHKWRIDEITRSAGGSAGG [r6_561_TrROS]” it is less than -1 kcal/mol.
For the sequence “SAGGSAGGMELVTLPVVTTEEVPVPPVTKTLPNGTRETVPQPPVTVVRETVLLTTPEEAAALLRSAGGSAGG [r6_120_JUSTAS]”, the “folding stability dG unfold” value was less than -1 kcal/mol.
For the sequence “SAGGSAGGMKKEKFGDSIRYTFPVDPNTSVEEIKKEIEKIPGVKDISKVKITPSPSNKLLVYVKSAGGSAGG [r6_516_JUSTAS]”, the “folding stability dG unfold” value is less than -1 kcal/mol.
Turning to “SAGGSAGGMKVTFDDGVEETLNLTEEEAKAWAESRPDRKMTRIEKEPPEKLSPENLTPEAIKLKSAGGSAGG [r6_881_JUSTAS]”, the “folding stability dG unfold” value was less than -1 kcal/mol.
“SAGGSAGGMPESAPPVPLPTSTVPLSEARAAGIEVPPGSERVIRTPSGVTYRISSATGTVTVVGSAGGSAGG [r6_275_JUSTAS]”: the “folding stability dG unfold” value is less than -1 kcal/mol.
With “SAGGSAGGMPPDTYVTEVVTTTSNVLGGKDIFRTIVKTTKILPVIEHPAGDGFTLVPPDTPGLESAGGSAGG [r6_405_JUSTAS]” the figure was less than -1 kcal/mol; with “SAGGSAGGPRRISLMYKFSPDDGEMEPPSIEDLAKKFFPGAEPKNIDIEHNPNNGYMQVEIPIKSAGGSAGG [r6_81_TrROS]”, less than -1 kcal/mol; with “SAGGSAGGSAAPKPVTVEKTIKVPGNDPEKVKKELEPKGWKVLGVDKNTVKAKITLPPGYKKSAGGSAGGSA [r18_168_JUSTAS]”, less than -1 kcal/mol.
“SAGGSAGGSADPQKVKEIAEKLQEKGYTVDVDRGPDSWTIRVENPKSGGKKKHKIDDPEDVLSAGGSAGGSA [r18_278_TrROS]”: the “folding stability dG unfold” value was less than -1 kcal/mol.
For the sequence “SAGGSAGGSAGDIDIKVEYNKENGMYRVRASFPDGKEVPIWMPPGQTPEEAKDQAKELLKSAGGSAGGSAGG [r17_161_TrROS]”, the “folding stability dG unfold” value is less than -1 kcal/mol.
Turning to “SAGGSAGGSAGDLPPGKEIEIMMSTPEWADEFADNFPNAKIKIEPMPPKPKYDPETGKGYSAGGSAGGSAGG [r17_126_TrROS]”, the “folding stability dG unfold” value was less than -1 kcal/mol.
With “SAGGSAGGSAGEIEIEFEPGEEFLDFIKNLPGPIESIEIEPIDPDKVRARLKLNIPEDLASAGGSAGGSAGG [r11_143_TrMRF]” the figure was less than -1 kcal/mol.
